Reference: patent publication US20220229068A1, “DETECTION OF PROTEIN TO PROTEIN INTERACTIONS” (THE GOVERNING COUNCIL OF THE UNIVERSITY OF TORONTO, priority 2019, published 2022)

Experiments:
Assay in all cases: SIMPL ELISA, bait-IN/prey-CIC
[1] = target: T1, NCBP2 (prey, CIC format) (human) (UniProt P52298)
T1 sequence (looked up): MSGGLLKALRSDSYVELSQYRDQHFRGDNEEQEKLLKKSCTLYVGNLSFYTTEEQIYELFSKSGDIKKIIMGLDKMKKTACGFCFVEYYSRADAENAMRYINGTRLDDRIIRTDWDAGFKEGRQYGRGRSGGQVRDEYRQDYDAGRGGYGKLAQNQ

[2] = target: T2, S100B (prey, CIC format) (human) (UniProt P04271)
T2 sequence (looked up): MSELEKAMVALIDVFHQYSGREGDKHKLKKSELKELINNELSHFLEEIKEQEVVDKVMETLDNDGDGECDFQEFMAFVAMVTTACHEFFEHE

[3] = target: T3, DRAP1 (prey, CIC format) (human) (UniProt Q14919)
T3 sequence (looked up): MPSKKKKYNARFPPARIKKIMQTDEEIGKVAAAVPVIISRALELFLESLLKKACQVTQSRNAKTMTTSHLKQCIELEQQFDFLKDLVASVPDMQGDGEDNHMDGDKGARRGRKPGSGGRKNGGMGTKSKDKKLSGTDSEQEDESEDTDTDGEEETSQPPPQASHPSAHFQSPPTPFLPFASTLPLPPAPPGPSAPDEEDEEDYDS

[4] = target: T4, NTF4 (prey, CIC format) (human) (UniProt P34130)
T4 sequence (looked up): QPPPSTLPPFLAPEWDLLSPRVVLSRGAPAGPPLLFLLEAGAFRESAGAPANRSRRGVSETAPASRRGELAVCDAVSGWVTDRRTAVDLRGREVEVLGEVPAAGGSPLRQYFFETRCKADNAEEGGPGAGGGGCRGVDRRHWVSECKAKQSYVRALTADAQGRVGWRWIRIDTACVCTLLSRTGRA

[5] = target: DDIT3 (prey, CIC format) (human) (UniProt P35638)
Sequence of DDIT3 (prey, CIC format) (human) (P35638 whole entry): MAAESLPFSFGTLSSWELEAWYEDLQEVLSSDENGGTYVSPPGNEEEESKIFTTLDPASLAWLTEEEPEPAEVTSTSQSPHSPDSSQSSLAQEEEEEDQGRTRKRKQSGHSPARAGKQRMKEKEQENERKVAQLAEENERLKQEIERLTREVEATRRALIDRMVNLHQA

[6] = target: LMNB1 (prey, CIC format) (human) (UniProt P20700)
Sequence of LMNB1 (prey, CIC format) (human) (P20700 whole entry): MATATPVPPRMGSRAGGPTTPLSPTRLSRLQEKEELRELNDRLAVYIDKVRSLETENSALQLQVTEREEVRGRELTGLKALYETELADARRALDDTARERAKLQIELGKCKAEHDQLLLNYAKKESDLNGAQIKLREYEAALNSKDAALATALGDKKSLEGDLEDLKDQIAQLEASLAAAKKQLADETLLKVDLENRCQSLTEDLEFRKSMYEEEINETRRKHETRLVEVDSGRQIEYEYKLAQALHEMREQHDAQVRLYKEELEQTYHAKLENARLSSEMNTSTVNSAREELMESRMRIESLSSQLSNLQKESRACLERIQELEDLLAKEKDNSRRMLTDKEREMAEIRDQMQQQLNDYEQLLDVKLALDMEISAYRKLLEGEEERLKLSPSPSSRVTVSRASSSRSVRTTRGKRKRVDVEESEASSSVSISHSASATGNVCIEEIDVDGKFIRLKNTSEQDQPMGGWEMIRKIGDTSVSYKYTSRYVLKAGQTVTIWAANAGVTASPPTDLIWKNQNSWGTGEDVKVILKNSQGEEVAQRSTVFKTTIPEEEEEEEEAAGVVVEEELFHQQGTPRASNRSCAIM

[7] = target: ARHGAP1 (prey, CIC format) (human) (UniProt Q07960)
Sequence of ARHGAP1 (prey, CIC format) (human) (Q07960 whole entry): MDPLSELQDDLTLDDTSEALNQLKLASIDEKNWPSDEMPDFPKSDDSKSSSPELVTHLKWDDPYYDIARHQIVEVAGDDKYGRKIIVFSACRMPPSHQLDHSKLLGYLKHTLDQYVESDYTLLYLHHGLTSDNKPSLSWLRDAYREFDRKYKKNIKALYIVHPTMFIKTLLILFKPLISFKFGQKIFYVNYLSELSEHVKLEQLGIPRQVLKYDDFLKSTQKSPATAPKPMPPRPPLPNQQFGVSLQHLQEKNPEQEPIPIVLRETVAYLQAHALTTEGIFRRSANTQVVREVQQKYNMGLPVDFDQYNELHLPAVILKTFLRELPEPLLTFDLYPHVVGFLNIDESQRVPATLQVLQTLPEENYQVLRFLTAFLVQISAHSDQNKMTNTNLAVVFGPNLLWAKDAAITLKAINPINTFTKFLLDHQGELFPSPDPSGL

[8] = target: CASP9 (prey, CIC format) (human) (UniProt P55211)
Sequence of CASP9 (prey, CIC format) (human) (P55211 whole entry): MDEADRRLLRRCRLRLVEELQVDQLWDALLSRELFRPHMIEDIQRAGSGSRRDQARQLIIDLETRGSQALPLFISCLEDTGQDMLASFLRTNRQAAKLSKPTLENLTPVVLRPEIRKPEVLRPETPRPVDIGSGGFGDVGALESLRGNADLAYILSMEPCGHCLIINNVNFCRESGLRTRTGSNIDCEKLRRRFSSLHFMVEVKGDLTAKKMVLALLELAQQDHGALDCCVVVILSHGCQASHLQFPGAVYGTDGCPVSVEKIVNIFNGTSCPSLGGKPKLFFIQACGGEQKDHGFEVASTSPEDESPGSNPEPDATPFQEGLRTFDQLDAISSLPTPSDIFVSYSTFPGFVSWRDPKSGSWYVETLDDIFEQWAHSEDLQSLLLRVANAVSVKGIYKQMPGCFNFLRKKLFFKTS

[9] = substrate: FOS (prey, CIC format) (human) (UniProt P01100)
Sequence of FOS (prey, CIC format) (human) (P01100 whole entry): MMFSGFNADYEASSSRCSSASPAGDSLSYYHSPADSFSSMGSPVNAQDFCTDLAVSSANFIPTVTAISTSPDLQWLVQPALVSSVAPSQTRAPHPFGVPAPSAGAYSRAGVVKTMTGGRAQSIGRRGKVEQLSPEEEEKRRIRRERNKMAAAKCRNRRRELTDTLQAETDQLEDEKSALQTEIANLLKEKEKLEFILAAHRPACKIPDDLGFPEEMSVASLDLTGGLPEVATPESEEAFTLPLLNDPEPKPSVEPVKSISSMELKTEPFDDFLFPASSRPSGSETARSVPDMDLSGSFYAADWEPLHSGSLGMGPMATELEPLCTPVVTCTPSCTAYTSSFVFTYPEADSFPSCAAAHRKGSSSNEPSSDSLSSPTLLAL

[10] = target: BCL2L1 (prey, CIC format) (human) (UniProt Q07817)
Sequence of BCL2L1 (prey, CIC format) (human) (Q07817 whole entry): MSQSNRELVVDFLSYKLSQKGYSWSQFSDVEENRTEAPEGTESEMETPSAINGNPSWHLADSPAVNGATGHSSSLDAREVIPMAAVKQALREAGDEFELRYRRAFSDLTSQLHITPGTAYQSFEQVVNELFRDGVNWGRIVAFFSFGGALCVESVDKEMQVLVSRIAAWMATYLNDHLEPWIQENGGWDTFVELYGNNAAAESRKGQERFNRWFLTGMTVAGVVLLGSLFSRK

[11] = target: T5, DCP1A (prey, CIC format) (human) (UniProt Q9NPI6)
T5 sequence (looked up): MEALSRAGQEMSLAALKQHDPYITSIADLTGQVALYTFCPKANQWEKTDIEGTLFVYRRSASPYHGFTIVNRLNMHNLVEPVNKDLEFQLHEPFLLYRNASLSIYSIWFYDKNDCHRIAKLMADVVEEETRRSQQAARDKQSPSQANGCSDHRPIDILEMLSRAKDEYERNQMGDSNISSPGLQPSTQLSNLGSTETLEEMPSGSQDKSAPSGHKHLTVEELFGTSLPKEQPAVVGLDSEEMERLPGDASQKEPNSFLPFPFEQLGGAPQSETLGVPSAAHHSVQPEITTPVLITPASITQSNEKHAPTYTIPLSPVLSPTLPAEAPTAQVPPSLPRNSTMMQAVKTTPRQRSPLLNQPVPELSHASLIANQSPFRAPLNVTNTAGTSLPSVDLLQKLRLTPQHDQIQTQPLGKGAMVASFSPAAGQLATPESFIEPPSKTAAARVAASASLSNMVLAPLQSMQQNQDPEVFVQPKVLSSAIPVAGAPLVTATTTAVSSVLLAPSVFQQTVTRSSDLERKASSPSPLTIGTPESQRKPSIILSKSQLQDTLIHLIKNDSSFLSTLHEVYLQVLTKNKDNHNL

[12] = target: T6, FRS2 (prey, CIC format) (human) (UniProt Q8WU20)
T6 sequence (looked up): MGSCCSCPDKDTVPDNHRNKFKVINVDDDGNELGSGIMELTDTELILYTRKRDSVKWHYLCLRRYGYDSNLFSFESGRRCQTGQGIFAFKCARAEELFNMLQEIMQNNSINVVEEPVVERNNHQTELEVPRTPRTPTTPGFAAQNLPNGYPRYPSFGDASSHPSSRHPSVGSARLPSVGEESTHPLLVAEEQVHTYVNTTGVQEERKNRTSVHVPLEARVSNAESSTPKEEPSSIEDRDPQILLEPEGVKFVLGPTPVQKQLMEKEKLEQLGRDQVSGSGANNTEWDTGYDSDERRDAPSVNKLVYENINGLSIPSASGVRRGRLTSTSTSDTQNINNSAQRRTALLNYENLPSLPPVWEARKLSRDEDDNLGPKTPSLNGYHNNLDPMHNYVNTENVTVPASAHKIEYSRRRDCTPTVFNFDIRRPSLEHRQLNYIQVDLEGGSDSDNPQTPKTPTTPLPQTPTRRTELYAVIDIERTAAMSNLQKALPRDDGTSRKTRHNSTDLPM

[13] = target: PCNA (prey, CIC format) (human) (UniProt P12004)
Sequence of PCNA (prey, CIC format) (human) (P12004 whole entry): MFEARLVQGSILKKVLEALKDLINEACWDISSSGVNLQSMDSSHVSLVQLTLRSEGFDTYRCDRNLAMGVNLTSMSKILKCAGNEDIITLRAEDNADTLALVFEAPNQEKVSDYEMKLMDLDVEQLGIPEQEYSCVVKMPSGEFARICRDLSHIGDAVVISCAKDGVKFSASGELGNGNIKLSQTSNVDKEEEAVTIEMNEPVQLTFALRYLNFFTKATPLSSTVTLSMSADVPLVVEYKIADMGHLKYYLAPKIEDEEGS

[14] = target: T7, PDPK1 (prey, CIC format) (human) (UniProt O15530)
T7 sequence (looked up): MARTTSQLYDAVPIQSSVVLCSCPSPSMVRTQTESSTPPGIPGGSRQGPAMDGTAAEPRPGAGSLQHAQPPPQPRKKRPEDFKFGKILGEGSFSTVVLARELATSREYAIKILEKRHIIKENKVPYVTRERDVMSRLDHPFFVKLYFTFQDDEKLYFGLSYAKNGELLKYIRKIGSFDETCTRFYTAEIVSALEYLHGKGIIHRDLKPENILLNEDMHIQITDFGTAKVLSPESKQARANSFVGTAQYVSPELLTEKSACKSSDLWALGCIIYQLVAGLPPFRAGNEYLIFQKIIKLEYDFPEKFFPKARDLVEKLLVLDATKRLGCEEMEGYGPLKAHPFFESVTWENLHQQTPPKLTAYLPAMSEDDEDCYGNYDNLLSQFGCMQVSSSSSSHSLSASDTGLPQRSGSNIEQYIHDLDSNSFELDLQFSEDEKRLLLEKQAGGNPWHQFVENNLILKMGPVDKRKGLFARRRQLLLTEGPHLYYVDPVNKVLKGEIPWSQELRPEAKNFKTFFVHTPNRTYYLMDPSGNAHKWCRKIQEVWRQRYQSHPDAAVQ

[15] = target: T8, BATF (prey, CIC format) (human) (UniProt Q16520)
T8 sequence (looked up): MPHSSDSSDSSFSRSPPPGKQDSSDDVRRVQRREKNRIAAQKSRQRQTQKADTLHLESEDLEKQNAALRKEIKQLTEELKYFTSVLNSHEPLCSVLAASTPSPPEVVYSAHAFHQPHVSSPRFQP

[16] = target: T9, PTPN11 (prey, CIC format) (human) (UniProt Q06124)
T9 sequence (looked up): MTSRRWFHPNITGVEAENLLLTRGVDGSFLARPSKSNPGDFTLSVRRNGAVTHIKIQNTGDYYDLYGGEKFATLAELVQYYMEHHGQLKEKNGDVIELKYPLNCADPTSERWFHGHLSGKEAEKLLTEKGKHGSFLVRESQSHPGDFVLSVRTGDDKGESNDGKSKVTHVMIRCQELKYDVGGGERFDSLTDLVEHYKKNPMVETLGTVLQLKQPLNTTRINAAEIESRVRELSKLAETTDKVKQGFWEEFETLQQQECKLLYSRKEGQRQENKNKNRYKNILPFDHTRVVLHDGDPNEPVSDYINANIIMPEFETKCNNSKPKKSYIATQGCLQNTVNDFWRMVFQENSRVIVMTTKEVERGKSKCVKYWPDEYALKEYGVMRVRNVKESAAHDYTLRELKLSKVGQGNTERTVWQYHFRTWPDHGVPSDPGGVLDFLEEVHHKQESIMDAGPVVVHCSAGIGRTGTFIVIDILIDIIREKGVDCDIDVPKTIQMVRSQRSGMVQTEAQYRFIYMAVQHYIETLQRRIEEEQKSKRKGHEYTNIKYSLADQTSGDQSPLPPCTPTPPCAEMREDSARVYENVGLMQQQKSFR

B1: NCBP1 (bait, IN format) (protein, human, UniProt Q09161 1-790, looked up)
chain: MSRRRHSDENDGGQPHKRRKTSDANETEDHLESLICKVGEKSACSLESNLEGLAGVLEADLPNYKSKILRLLCTVARLLPEKLTIYTTLVGLLNARNYNFGGEFVEAMIRQLKESLKANNYNEAVYLVRFLSDLVNCHVIAAPSMVAMFENFVSVTQEEDVPQVRRDWYVYAFLSSLPWVGKELYEKKDAEMDRIFANTESYLKRRQKTHVPMLQVWTADKPHPQEEYLDCLWAQIQKLKKDRWQERHILRPYLAFDSILCEALQHNLPPFTPPPHTEDSVYPMPRVIFRMFDYTDDPEGPVMPGSHSVERFVIEENLHCIIKSHWKERKTCAAQLVSYPGKNKIPLNYHIVEVIFAELFQLPAPPHIDVMYTTLLIELCKLQPGSLPQVLAQATEMLYMRLDTMNTTCVDRFINWFSHHLSNFQFRWSWEDWSDCLSQDPESPKPKFVREVLEKCMRLSYHQRILDIVPPTFSALCPANPTCIYKYGDESSNSLPGHSVALCLAVAFKSKATNDEIFSILKDVPNPNQDDDDDEGFSFNPLKIEVFVQTLLHLAAKSFSHSFSALAKFHEVFKTLAESDEGKLHVLRVMFEVWRNHPQMIAVLVDKMIRTQIVDCAAVANWIFSSELSRDFTRLFVWEILHSTIRKMNKHVLKIQKELEEAKEKLARQHKRRSDDDDRSSDRKDGVLEEQIERLQEKVESAQSEQKNLFLVIFQRFIMILTEHLVRCETDGTSVLTPWYKNCIERLQQIFLQHHQIIQQYMVTLENLLFTAELDPHILAVFQQFCALQA
- PLU mean [1]: 2.15
- PLU mean [2]: 0.217

B2: DR1 (bait, IN format) (protein, human, UniProt Q01658 1-176, looked up)
chain: MASSSGNDDDLTIPRAAINKMIKETLPNVRVANDARELVVNCCTEFIHLISSEANEICNKSEKKTISPEHVIQALESLGFGSYISEVKEVLQECKTVALKRRKASSRLENLGIPEEELLRQQQELFAKARQQQAELAQQEWLQMQQAAQQAQLAAASASASNQAGSSQDEEDDDDI
- PLU mean [3]: 3.97
- PLU mean [4]: 0.0529

B3: ATF3 (bait, IN format) (protein, human, UniProt P18847 1-181, looked up)
chain: MMLQHPGQVSASEVSASAIVPCLSPPGSLVFEDFANLTPFVKEELRFAIQNKHLCHRMSSALESVTVSDRPLGVSITKAEVAPEEDERKKRRRERNKIAAAKCRNKKKEKTECLQKESEKLESVNAELKAQIEELKNEKQHLIYMLNLHRPTCIVRAQNGRTPEDERNLFIQQIKEGTLQS
- PLU mean [5]: 1.64
- PLU mean [6]: 0.134

B4: CEBPG (bait, IN format) (protein, human, UniProt P53567 1-150, looked up)
chain: MSKISQQNSTPGVNGISVIHTQAHASGLQQVPQLVPAGPGGGGKAVAPSKQSKKSSPMDRNSDEYRQRRERNNMAVKKSRLKSKQKAQDTLQRVNQLKEENERLEAKIKLLTKELSVLKDLFLEHAHNLADNVQSISTENTTADGDNAGQ
- PLU mean [7]: 0.0585
- PLU mean [8]: 0.482
- PLU mean [9]: 0.788

B5: BAD (bait, IN format) (protein, human, UniProt Q92934 1-168, looked up)
chain: MFQIPEFEPSEQEDSSSAERGLGPSPAGDGPSGSGKHHRQAPGLLWDASHQQEQPTSSSHHGGAGAVEIRSRHSSYPAGTEDDEGMGEEPSPFRGRSRSAPPNLWAAQRYGRELRRMSDEFVDSFKKGLPRPKSAGTATQMRQSSSWTRVFQSWWDRNLGRGSSAPSQ
- PLU mean [10]: 1.85
- PLU mean [11]: 0.499

B6: GADD45A (bait, IN format) (protein, human, UniProt P24522 1-165, looked up)
chain: MTLEEFSAGEQKTERMDKVGDALEEVLSKALSQRTITVGVYEAAKLLNVDPDNVVLCLLAADEDDDRDVALQIHFTLIQAFCCENDINILRVSNPGRLAELLLLETDAGPAASEGAEQPPDLHCVLVTNPHSSQWKDPALSQLICFCRESRYMDQWVPVINLPER
- PLU mean [12]: 0.21
- PLU mean [13]: 0.0617
- PLU mean [14]: 0.265

B7: JUNB (bait, IN format) (protein, human, UniProt P17275 1-347, looked up)
chain: MCTKMEQPFYHDDSYTATGYGRAPGGLSLHDYKLLKPSLAVNLADPYRSLKAPGARGPGPEGGGGGSYFSGQGSDTGASLKLASSELERLIVPNSNGVITTTPTPPGQYFYPRGGGSGGGAGGAGGGVTEEQEGFADGFVKALDDLHKMNHVTPPNVSLGATGGPPAGPGGVYAGPEPPPVYTNLSSYSPASASSGGAGAAVGTGSSYPTTTISYLPHAPPFAGGHPAQLGLGRGASTFKEEPQTVPEARSRDATPPVSPINMEDQERIKVERKRLRNRLAATKCRKRKLERIARLEDKVKTLKAENAGLSSTAGLLREQVAQLKQKVMTHVSNGCQLLLGVKGHAF
- PLU mean [15]: 2.04
- PLU mean [16]: 0.345
